Measured values from publication PMC10272187, “PPP2R1A regulates migration persistence through the NHSL1-containing WAVE Shell Complex” (Nature Communications, 2023).

Molecular target: T1, WAVE1 (1-230) (UniProt Q92558 1-230)
T1 construct: WAVE1 residues 1-230; also called WAVE1 N-terminus; source: E.coli, purified
T1 sequence (looked up): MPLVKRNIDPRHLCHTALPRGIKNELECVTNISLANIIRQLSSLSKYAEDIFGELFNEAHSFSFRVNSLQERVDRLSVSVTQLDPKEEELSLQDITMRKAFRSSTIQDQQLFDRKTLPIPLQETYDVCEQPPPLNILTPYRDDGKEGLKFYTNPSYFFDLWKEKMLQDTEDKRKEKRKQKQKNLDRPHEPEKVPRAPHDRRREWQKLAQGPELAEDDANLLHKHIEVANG
Test: SEC; Recombinant subunits expressed individually; CYFIP1-NCKAP1 dimer and BRK1-ABI1-NHSL1 (or WAVE1) trimer reconstituted; pentamers purified on SOURCE 15Q and Superdex 200 (24 ml column)
Details: both partners purified

binding result: binds
B1: BRK1 (recombinant) (natural protein, UniProt Q8WUW1 1-75, looked up)
chain: MAGQEDPVQREIHQDWANREYIEIITSSIKKIADFLNSFDMSCRSRLATLNEKLTALERRIEYIEARVTKGETLT
notes: BRK1; source: E.coli, purified
